For the experiment, the target named is T1, Orf8-IL17RA interaction (Homo sapiens, UniProt Q96F46).
T1 construct: co-immunoprecipitation of endogenous IL17RA with Strep-tagged Orf8; host or cells: HEK293T
T1 sequence (Q96F46 33-866): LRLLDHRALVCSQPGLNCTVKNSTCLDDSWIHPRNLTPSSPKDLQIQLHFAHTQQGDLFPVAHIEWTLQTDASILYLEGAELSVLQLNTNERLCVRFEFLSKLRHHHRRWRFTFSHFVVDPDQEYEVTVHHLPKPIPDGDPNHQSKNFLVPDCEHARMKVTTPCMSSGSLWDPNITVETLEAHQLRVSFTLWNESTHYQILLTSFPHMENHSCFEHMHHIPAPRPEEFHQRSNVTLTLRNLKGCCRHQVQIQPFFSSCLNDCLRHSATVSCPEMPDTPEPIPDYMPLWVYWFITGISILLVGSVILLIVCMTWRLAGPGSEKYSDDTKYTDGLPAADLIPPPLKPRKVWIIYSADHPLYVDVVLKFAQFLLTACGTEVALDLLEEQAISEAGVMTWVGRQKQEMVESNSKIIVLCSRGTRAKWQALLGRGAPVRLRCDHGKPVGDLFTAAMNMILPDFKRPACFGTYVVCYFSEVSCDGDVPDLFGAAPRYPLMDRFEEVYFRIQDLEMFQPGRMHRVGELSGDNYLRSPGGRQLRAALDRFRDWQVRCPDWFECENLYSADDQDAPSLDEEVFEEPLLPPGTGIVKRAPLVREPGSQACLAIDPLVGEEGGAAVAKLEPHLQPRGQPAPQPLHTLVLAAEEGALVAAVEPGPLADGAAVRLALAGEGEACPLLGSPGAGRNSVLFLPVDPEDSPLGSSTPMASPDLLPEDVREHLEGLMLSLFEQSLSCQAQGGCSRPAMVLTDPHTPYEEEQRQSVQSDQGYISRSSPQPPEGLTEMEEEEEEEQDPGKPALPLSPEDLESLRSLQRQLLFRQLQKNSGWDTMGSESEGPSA
In kind it is binding.

Regarding IL-17A, the “Effect on Orf8-IL17RA interaction (co-immunoprecipitation, in words)” value is reported as “does not disrupt the interaction with Orf8”.

The record behind these values is patent publication US20230395193A1 (priority 2020, published 2023).
